# Results from patent publication US5328898A, “Factor XIIIA fibrin binding fragments” (Duke University, priority 1990, dated 1994).
# Ends that are not written are not given here.
# How the values were obtained:
# fibrin [1] = biological target: T1, fibrin (Homo sapiens, UniProt P02671+P02675+P02679); assay: Fibrin binding of radiolabeled peptides; details: unbound material analyzed by reverse phase HPLC
# T1 construct: the mixture was clotted by the addition of 10 U/mL of thrombin; After 10 minutes at 37° C., the fibrin was compressed
# T1 sequence (P02671 36-629 limits assumed): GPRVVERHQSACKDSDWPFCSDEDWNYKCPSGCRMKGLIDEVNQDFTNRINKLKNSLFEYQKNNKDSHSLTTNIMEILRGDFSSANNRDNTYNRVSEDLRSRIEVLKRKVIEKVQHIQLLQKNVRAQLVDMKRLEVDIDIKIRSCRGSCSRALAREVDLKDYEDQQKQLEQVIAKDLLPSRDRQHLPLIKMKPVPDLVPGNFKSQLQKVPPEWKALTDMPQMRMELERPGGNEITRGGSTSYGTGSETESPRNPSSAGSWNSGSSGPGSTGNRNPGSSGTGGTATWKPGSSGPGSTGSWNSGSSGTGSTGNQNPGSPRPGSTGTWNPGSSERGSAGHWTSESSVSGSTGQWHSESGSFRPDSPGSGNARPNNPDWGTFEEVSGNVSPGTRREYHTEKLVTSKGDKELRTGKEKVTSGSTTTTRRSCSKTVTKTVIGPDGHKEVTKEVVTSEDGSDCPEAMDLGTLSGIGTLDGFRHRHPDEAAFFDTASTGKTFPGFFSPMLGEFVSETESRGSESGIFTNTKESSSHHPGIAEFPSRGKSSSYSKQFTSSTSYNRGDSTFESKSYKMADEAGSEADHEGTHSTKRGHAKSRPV
# T1 sequence (P02675 45-491 limits assumed): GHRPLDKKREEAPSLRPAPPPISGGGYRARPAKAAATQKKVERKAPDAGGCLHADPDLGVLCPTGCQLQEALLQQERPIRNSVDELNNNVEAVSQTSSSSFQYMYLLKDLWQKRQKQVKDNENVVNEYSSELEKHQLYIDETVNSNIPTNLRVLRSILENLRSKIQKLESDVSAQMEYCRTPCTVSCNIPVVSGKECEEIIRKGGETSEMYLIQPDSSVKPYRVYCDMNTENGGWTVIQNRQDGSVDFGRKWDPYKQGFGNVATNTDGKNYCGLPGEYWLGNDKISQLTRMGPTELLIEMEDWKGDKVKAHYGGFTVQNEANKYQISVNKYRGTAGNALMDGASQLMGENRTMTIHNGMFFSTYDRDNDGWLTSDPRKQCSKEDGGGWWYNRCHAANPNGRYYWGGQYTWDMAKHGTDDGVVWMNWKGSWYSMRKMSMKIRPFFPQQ
# T1 sequence (P02679 27-437 isoform P02679-2 limits assumed): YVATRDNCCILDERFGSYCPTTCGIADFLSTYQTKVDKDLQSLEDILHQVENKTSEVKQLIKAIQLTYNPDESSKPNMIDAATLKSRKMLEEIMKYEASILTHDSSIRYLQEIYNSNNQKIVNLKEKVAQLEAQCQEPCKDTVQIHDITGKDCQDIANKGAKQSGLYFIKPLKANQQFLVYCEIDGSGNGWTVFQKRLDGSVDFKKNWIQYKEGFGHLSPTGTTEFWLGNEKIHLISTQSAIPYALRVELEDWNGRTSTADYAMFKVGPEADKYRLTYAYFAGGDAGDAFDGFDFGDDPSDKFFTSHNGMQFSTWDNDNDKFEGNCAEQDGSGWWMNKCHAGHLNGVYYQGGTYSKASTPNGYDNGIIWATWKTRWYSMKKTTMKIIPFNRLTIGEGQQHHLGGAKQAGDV
# Procedure: By reverse phase HPLC, peptides containing portions of the N- and C-terminal amino acid sequences of the DDAVY. . . peptide were separated from the full length DDAVY. . . peptide.
# (§1) Binding of radiolabeled DDAVY. . . peptide prepared in accordance with Example 3 above was conducted in the presence of the following proteins: human albumin (Kabi), bovine serum albumin (BSA), hemoglobin, and cytochrome C. Fibrin binding was performed by incubating 0.5 mg/mL fibrinogen, 0.1% Triton X-100, 0.15M NaCl, 0.1M Tris, pH 7.4 (TBS), 10 mM CaCl2, and ^125 I-labeled DDAVY. . . peptide and the mixture was clotted by the addition of 10 U/mL of thrombin. After 10 minutes at 37° C., the fibrin was compressed by centrifugation (10-12,000 rpm for 10 minutes), washed thrice with TBS and the bound radioactivity was quantitated using a gamma Counter. Proteins were included in the binding mixture at these concentrations: hemoglobin (100 micromolar); human albumin (Kabi) (100 micromolar); and cytochrome C (500 micromolar). Fibrin concentration was approximately 1.0 micromolar.
# fibrin [2] = biological target: T1, fibrin; assay: Inhibition of 125I-DDAVY. . . peptide binding to fibrin (competition)
# Procedure: as §1
# Purified recombinant platelet Factor XIII A-chains were used to inhibit the binding of DDAVY. . . peptide to fibrin. At a concentration of 0.4 mg/mL fibrinogen, 2.0 mg/mL of recombinant platelet Factor XIII inhibited the binding of DDAVY. . . peptide to fibrin by 76%. In another experiment, purified placental Factor XIII A-chains were used to inhibit DDAVY. . . peptide binding to fibrin. Binding was conducted in the presence of 1.0 mg/mL fibrinogen, 5 nanomoles of placental Factor XIII and approximately 0.05 nanomoles of the DDAVY. . . peptide. Under these conditions, the binding of the peptide to fibrin was inhibited by nearly 44%.
# Binding of radiolabeled DDAVY. . . peptide (approximately 52 pmoles) was mixed with unlabeled DDAVY. . . peptide (approximately 34 nanomoles;=660-fold molar excess over radiolabeled peptide) and the mixture was bound to 0.1 mg/mL fibrin. Under these conditions, the binding of radiolabeled peptide was inhibited by nearly 83%. […] In these experiments and in the experiments conducted in the presence of XIII, binding values were corrected for nonspecific binding observed in the absence of thrombin and/or in the presence of XIII or unlabeled DDAVY. . . peptide alone.
# Factor XIIIa = assay: Factor XIIIa-catalyzed crosslinking of fibrin II (SDS-PAGE); format: biochemical; details: human fibrinogen 0.27 mg/mL
# Procedure: This example illustrates the effect of DDAVY. . . peptide and NKLIV. . . peptide on fibrin crosslinking by Factor XIIIa. Purified human fibrinogen (0.27 mg/mL) was mixed with increasing concentrations (56 micromolar to 280 micromolar) of the DDAVY. . . peptide and incubated for 15 minutes at 37° C. Then, calcium chloride was added in 0.1M Tris, pH7.4 containing 0.15M NaCl (Tris-buffered saline, TBS) to make the final calcium concentration equal 10 mM. The mixture was then clotted by the addition of 10 U/mL thrombin. Thrombin also served to activate the catalytic amounts of Factor XIII present in the fibrinogen preparation. The mixture was incubated for an additional 15 minutes at 37° C. and then solubilized in SDS-PAGE buffer containing 5% sodium dodecylsulfate (SDS), 4M urea, 10mM Tris, pH7.4, 1.0 mM ethylenediaminetetraacetic acid (EDTA), 1% 2-mercaptoethanol, and 0.001% bromophenol blue. The mixture was boiled for 5 minutes, cooled, and then separated by electrophoresis on a 4-15% linear gradient polyacrylamide gel (SDS-polyacrylamide gel electrophoresis, SDS-PAGE). After electrophoresis, the gel was stained using Coomassie Brilliant Blue and destained. Control incubations were conducted simultaneously that contained no peptide.
# The reaction was also conducted as described for the DDAVY. . . peptide, except that NKLIV. . . peptide was substituted for the DDAVY. . . peptide. […]
substance,measurement,setting,value
DDAVYLDNEKEREEYVLNDIGVIFYGEVNDIKTRSWSYGQF-amide (DDAVYLDNEKEREEYVLNDIGVIFYGEVNDIKTRSWSYGQF-NH2) [DDAVY. . . peptide],binding to fibrin,fibrin [1],bound to fibrin
same,inhibition of binding of radiolabeled DDAVY. . . peptide to fibrin,"fibrin [2]; 1.0 mg/mL unlabeled peptide, 2.0 micrograms/mL radiolabeled peptide, 0.2 mg/mL fibrin",inhibited completely
same,inhibition of binding of radiolabeled DDAVY. . . peptide to fibrin,"fibrin [2]; approximately 34 nanomoles unlabeled peptide (660-fold molar excess over approximately 52 pmoles radiolabeled), 0.1 mg/mL fibrin",~83%
same,inhibition of fibrin crosslinking,Factor XIIIa; 280 micromolar peptide,~50%
same,concentration at which inhibition of fibrin crosslinking could be detected,"Factor XIIIa; 10 U/mL thrombin, 10 mM calcium",around 112 micromolar
GEVNDIKTRSWSYGQF [C-terminal portion of the DDAVY. . . peptide separated by HPLC],binding to fibrin,fibrin [1],did not bind to fibrin
KTRSWSYGQF [C-terminal portion of the DDAVY. . . peptide separated by HPLC],binding to fibrin,fibrin [1],did not bind to fibrin
placental Factor XIII A-chains: purified placental Factor XIII A-chains,inhibition of the binding of DDAVY. . . peptide to fibrin,"fibrin [2]; 1.0 mg/mL fibrinogen, 5 nanomoles placental Factor XIII, approximately 0.05 nanomoles DDAVY. . . peptide",~44%
recombinant platelet Factor XIII: Purified recombinant platelet Factor XIII A-chains,inhibition of the binding of DDAVY. . . peptide to fibrin,"fibrin [2]; 0.4 mg/mL fibrinogen, 2.0 mg/mL recombinant platelet Factor XIII",76%
